Measurements reported in patent publication US20240116985A1 (published 2024).
Starred links: 1 amine or outer side, 2 acyl side, 3 side chain; linkers in the order of their positions; H or OH if unused. Positions of bridges follow the written chain, without caps; N, C: chain ends. Non-standard residues stand in square brackets, D forms with d. Primed or numbered codes have the meaning given here. SeN″ = (S)-5-(((allyloxy)carbonyl)(methyl)amino)-2-amino-2-methylpentanoic acid (stapling residue), C=CCOC(=O)N(C)CCC[C@](C)(N[*:1])C(=O)[*:2]; RdN″ = (R)-4-(((allyloxy)carbonyl)(methyl)amino)-2-amino-2-methylbutanoic acid (stapling residue), C=CCOC(=O)N(C)CC[C@@](C)(N[*:1])C(=O)[*:2]; B5(16) = 2-amino-2-(pent-4-en-1-yl)hept-6-enoic acid = 2,2-bis(4-pentenyl)glycine (stitching residue), C=CCCCC(CCCC=C)(N[*:1])C(=O)[*:2]; B5(23) = 2-amino-2-(pent-4-en-1-yl)hept-6-enoic acid (2,2-bis(4-pentenyl)glycine), stitching residue, C=CCCCC(CCCC=C)(N[*:1])C(=O)[*:2]; B5(5) = 2,2-bis(4-pentenyl)glycine, 2-amino-2-(pent-4-en-1-yl)hept-6-enoic acid (stitching residue), C=CCCCC(CCCC=C)(N[*:1])C(=O)[*:2]; B5(9) = 2-amino-2-(pent-4-en-1-yl)hept-6-enoic acid (2,2-bis(4-pentenyl)glycine), C=CCCCC(CCCC=C)(N[*:1])C(=O)[*:2]; B5(19) = 2-amino-2-(pent-4-en-1-yl)hept-6-enoic acid (bis(4-pentenyl)glycine), C=CCCCC(CCCC=C)(N[*:1])C(=O)[*:2]; S7 = C[C@@](CCCCCC=[*:3])(N[*:1])C(=O)[*:2]; d(βAsp) = O=C(O)[C@@H](CC(=O)[*:2])N[*:1]; Phe(3-F) = N[C@@H](Cc1cccc(F)c1)C(=O)O; His(τ-Me) = Cn1cnc(C[C@H](N)C(=O)O)c1; Bta = N[C@@H](Cc1csc2ccccc12)C(=O)O; αAllylPro = C=CC[C@@]1(C(=O)O)CCCN1; S8 = C=CCCCCCC[C@](C)(N)C(=O)O

T1: full-length beta-Catenin (Uniprot ID P35222) (Homo sapiens (Human), UniProt P35222 1-781)
T1 construct: The assay text says full-length beta-Catenin (Uniprot ID P35222); also called bCat; B-Catenin
T1 sequence: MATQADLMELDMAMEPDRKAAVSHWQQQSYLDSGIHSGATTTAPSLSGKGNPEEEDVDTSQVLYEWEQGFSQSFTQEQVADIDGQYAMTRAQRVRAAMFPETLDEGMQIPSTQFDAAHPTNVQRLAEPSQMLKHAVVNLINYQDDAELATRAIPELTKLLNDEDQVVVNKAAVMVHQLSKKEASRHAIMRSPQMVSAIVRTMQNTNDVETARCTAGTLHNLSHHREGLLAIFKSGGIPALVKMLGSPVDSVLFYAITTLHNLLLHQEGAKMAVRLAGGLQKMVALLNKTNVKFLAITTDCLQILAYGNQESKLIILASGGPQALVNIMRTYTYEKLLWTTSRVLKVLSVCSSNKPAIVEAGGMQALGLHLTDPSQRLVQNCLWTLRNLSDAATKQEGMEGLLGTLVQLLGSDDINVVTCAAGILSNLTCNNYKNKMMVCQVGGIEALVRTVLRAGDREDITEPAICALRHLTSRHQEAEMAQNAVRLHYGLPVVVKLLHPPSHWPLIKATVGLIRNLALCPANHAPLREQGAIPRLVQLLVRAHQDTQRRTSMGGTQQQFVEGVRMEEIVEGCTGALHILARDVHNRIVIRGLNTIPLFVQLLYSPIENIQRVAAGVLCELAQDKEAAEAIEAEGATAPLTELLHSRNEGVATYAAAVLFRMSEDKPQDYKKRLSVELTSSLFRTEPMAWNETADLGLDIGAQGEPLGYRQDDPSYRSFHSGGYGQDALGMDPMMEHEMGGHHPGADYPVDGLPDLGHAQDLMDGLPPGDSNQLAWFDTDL

T2: full-length beta-Catenin (Uniprot ID P35222) (Homo sapiens (Human), UniProt P35222 1-781)
T2 construct: The assay protocol says 'full-length beta-Catenin (Uniprot ID P35222)'; also called bCat; B-Catenin
T2 sequence: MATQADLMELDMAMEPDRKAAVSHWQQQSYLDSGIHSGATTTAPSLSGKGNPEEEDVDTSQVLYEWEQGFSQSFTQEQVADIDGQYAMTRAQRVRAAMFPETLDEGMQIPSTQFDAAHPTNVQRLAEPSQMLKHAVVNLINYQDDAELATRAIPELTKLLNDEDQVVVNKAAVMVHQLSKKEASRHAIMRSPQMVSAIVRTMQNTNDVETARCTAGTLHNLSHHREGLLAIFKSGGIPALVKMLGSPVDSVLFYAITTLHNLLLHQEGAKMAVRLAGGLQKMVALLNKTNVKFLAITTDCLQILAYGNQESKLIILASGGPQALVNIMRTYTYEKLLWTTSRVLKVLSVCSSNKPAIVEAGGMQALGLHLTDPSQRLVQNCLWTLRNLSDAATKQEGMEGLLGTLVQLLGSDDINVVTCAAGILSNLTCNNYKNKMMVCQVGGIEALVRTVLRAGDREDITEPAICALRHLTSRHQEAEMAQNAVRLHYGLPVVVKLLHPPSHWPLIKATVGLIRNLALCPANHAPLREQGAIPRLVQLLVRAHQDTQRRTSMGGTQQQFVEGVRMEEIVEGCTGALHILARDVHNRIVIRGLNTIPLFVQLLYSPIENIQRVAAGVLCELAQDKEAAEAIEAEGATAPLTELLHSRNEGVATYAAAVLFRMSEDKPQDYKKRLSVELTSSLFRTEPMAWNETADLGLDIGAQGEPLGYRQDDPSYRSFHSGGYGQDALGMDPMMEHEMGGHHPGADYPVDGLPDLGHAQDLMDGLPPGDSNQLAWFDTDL

T3: full-length beta-Catenin (Uniprot ID P35222) (Homo sapiens (Human), UniProt P35222 1-781)
T3 construct: also called bCat; B-Catenin
T3 sequence: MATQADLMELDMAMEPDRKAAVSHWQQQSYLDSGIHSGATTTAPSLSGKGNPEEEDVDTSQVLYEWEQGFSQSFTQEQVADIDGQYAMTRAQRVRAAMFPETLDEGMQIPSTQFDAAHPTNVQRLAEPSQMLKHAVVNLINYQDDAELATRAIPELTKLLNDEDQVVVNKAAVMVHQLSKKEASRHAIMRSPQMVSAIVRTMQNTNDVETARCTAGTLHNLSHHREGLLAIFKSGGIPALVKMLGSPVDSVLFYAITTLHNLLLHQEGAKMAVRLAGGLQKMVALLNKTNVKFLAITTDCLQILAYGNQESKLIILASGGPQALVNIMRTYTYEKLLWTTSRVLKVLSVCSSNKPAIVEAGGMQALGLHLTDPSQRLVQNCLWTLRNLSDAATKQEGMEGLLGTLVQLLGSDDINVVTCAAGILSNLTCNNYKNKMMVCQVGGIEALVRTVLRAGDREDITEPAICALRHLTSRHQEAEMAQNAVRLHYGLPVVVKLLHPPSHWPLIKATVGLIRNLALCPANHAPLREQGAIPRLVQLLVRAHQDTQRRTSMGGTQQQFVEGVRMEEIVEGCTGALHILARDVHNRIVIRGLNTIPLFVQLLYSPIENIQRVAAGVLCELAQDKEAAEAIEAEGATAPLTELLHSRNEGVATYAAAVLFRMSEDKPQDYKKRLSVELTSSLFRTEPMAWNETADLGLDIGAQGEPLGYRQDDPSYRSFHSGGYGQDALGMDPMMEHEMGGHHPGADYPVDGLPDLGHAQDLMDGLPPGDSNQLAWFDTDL


Key:
[1] = biological target: T1, full-length beta-Catenin (Uniprot ID …); experiment: fluorescence polarization competition; full-length beta-catenin with 5FAM-labeled TCF4 (residues 10-53) probe as competitor
Method: The plate was incubated protected from light for 60 minutes at 20° C. prior to read. Reads were performed on a CLARIOstar plate reader (BMG Labtech) in duplicate, and data were fitted to a 1:1 binding model with hill slope using an in-house script. All provided concentrations are final concentrations.

[2] = biological target: T2, full-length beta-Catenin (Uniprot ID …); experiment: fluorescence polarization competition; full-length beta-catenin, competitor 5FAM-TCF4(10-53) probe
Procedure, shortened: (§1)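 Fluorescence polarization was read in duplicate after the plate sat 60 minutes at 20° C. shielded from light. Values come from fitting to a 1:1 binding model with hill slope.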

[3] = biological target: T3, full-length beta-Catenin (Uniprot ID …); experiment: as above
Procedure, shortened: as §1

Binder | IC50 [1] | IC50 [3] | further results
Ac-[αAllylPro]DA[B5(16)]D[His(τ-Me)]AAFV[S8][Phe(3-F)][Bta]Q-NH2 (staple 1-4, 4-11; not fully specified, Stapled peptide; also called Ac-PL3-Asp-Ala-B5-Asp-1meH-Ala-Ala-Phe-Val-S8-3FF-BztA-Gln-NH2) [I-403] | 2130 nM | – | –
Ac-[αAllylPro]DA[B5(9)]DHAAFV[S8][Phe(3-F)][Bta]Q-NH2 (staple 1-4, 4-11; also: earlier eluting HPLC isomer, E/Z not assigned, Stapled peptide; also called Ac-PL3-Asp-Ala-B5-Asp-His-Ala-Ala-Phe-Val-S8-3FF-BztA-Gln-NH2) [I-396] | 3430 nM | – | –
Ac-[αAllylPro]DA[B5(16)]DHAAFV[SeN″][Phe(3-F)][Bta]Q-NH2 (staple 1-4, 4-11; not fully specified; printed as Ac-PL3-Asp-Ala-B5-Asp-His-Ala-Ala-Phe-Val-SeN-3FF-BztA-Gln-NH2, Stapled peptide; also called Ac-PL3-Asp-Ala-B5-Asp-His-Ala-Ala-Phe-Val-SeN-3FF-BztA-Gln-NH2) [I-398] | 2160 nM | – | –
Ac-[αAllylPro]DA[B5(16)]DHAAFQ[SeN″][Phe(3-F)][Bta]Q-NH2 (staple 1-4, 4-11; not fully specified; printed as Ac-PL3-Asp-Ala-B5-Asp-His-Ala-Ala-Phe-Gln-SeN-3FF-BztA-Gln-NH2, Stapled peptide; also called Ac-PL3-Asp-Ala-B5-Asp-His-Ala-Ala-Phe-Gln-SeN-3FF-BztA-Gln-NH2) [I-400] | 3590 nM | – | –
XDAXDHAAFQXFXQ (not fully specified; N-terminal Ac; PL3 at 1, B5 at 4, S8 at 11 (stapled 1-4 and 4-11 by olefin metathesis); 3FF at 12; BztA at 13; C-terminal NH2, Stapled peptide; also called Ac-PL3-Asp-Ala-B5-Asp-His-Ala-Ala-Phe-Gln-S8-3FF-BztA-Gln-NH2) [I-399] | 2500 nM | – | –
XDAXDHAAFVXFXQ (not fully specified; N-terminal Ac; PL3 at 1, B5 at 4, S8 at 11 (stapled 1-4 and 4-11 by olefin metathesis); 3FF at 12; BztA at 13; C-terminal NH2, Stapled peptide; also called Ac-PL3-Asp-Ala-B5-Asp-His-Ala-Ala-Phe-Val-S8-3FF-BztA-Gln-NH2) [I-397] | 2230 nM | – | –
Ac-[αAllylPro]DA[B5(23)]DEAAFQ[S8]F[Bta]Q-NH2 (staple 1-4, 4-11, Stapled peptide; also called Ac-PL3-Asp-Ala-B5-Asp-Glu-Ala-Ala-Phe-Gln-S8-Phe-BztA-Gln-NH2) [I-406] | 94 nM | – | –
Ac-ADI[RdN″]DEAAFQ[S7]FW-NH2 (staple 4-11, also called Ac-Ala-Asp-Ile-RdN-Asp-Glu-Ala-Ala-Phe-Gln-S7-Phe-Trp-NH2) [I-148] | – | – | IC50 [2]: 2770 nM
Ac-[αAllylPro]DI[B5(5)]DDAAFQ[S8]FWH-NH2 (staple 1-4, 4-11, also called Ac-PL3-Asp-Ile-B5-Asp-Asp-Ala-Ala-Phe-Gln-S8-Phe-Trp-His-NH2) [I-174] | – | – | IC50 [2]: 1760 nM
Ac-[αAllylPro][d(βAsp)]I[B5(9)]DEAAFQ[S8]F[Bta]Q-NH2 (staple 1-4, 4-11, Stapled peptide) [I-668] | – | 675 nM | –

Continued, in another order:

IC50 [1] | IC50 [3] | Binder | further results
50 nM | – | Ac-[αAllylPro]DV[B5(23)]DEAAFQ[S8]F[Bta]Q-NH2 (staple 1-4, 4-11, Stapled peptide; also called Ac-PL3-Asp-Val-B5-Asp-Glu-Ala-Ala-Phe-Gln-S8-Phe-BztA-Gln-NH2) [I-410] | –
30 nM | – | Ac-[αAllylPro]DI[B5(23)]DEAAFQ[S8]F[Bta]Q-NH2 (staple 1-4, 4-11, Stapled peptide; also called Ac-PL3-Asp-Ile-B5-Asp-Glu-Ala-Ala-Phe-Gln-S8-Phe-BztA-Gln-NH2) [I-407] | –
– | 430 nM | XDIXDEALFQXFXQ (not fully specified; Ac-PL3-Asp-Ile-B5-Asp-Glu-Ala-Leu-Phe-Gln-S8-Phe-BztA-Gln-NH2; N-terminal acetyl, C-terminal amide; PL3(1), B5(4), S8(11) stapled by olefin metathesis (1-4 and 4-11); BztA at 13, Stapled peptide) [I-659] | –
– | 45 nM | XDIXDEASFQXFXQ (not fully specified; Ac-PL3-Asp-Ile-B5-Asp-Glu-Ala-Ser-Phe-Gln-S8-Phe-BztA-Gln-NH2; N-terminal acetyl, C-terminal amide; PL3(1), B5(4), S8(11) stapled by olefin metathesis (1-4 and 4-11); BztA at 13, Stapled peptide) [I-661] | –
– | 544 nM | Ac-[αAllylPro]DI[B5(19)]DEAFFQ[S8]F[Bta]Q-NH2 (staple 1-4, 4-11, Stapled peptide) [I-660] | –
– | 72 nM | Ac-[αAllylPro]DI[B5(16)]DESAFQ[S8]F[Bta]Q-NH2 (staple 1-4, 4-11, Stapled peptide) [I-652] | –
– | 183 nM | Ac-[αAllylPro]DI[B5(16)]DEWAFQ[S8]F[Bta]Q-NH2 (staple 1-4, 4-11, Stapled peptide) [I-655] | –
– | 546 nM | XDIXDEALFQXFXQ (not fully specified; Ac-PL3-Asp-Ile-B5-Asp-Glu-Ala-Leu-Phe-Gln-S8-Phe-BztA-Gln-NH2; N-terminal acetyl, C-terminal amide; PL3(1), B5(4), S8(11) stapled by olefin metathesis (1-4 and 4-11); BztA at 13, Stapled peptide) [I-658] | –
